What was measured:
[1] = target: HA-tagged MIDN^△α-Helix-C (human) (UniProt Q504T8); experiment: co-IP
[2] = target: human 26S proteasome (proteasome holoenzyme: 20S core particle with 19S regulatory particle) (human, UniProt P35998;P62191;P43686;P62333;P17980;P62195;Q13200;Q99460;O43242;O00232;O00231;Q15 …); experiment: pull-down

Row | Molecule | reduction of binding relative to WT MIDN [1] [%] | binding result [2]
1 | Flag-tagged RPN11 (from UniProt O00487 1-310) (enzyme) | 60 | –
2 | 3X-Flag tagged full length human MIDN^WT (midnolin, 468-aa isoform) (natural protein) MEPQPGGARSCRRGAPGGACELGPAAEAAPMSLAIHSTTGTRYDLAVPPDETVEGLRKRLSQRLKVPKERLALLHKDTRLSSGKLQEFGVGDGSKLTLVPTVEAGLMSQASRPEQSVMQALESLTETQVSDFLSGRSPLTLALRVGDHMMFVQLQLAAQHAPLQHRHVLAAAAAAAAARGDPSIASPVSSPCRPVSSAARVPPVPTSPSPASPSPITAGSFRSHAASTTCPEQMDCSPTASSSASPGASTTSTPGASPAPRSRKPGAVIESFVNHAPGVFSGTFSGTLHPNCQDSSGRPRRDIGTILQILNDLLSATRHYQGMPPSLAQLRCHAQCSPASPAPDLAPRTTSCEKLTAAPSASLLQGQSQIRMCKPPGDRLRQTENRATRCKVERLQLLLQQKRLRRKARRDARGPYHWSPSRKAGRSDSSSSGGGGSPSEASGLGLDFEDSVWKPEVNPDIKSEFVVA | – | binds
3 | 3X-Flag tagged full length human MIDN R403A (purified) (natural protein) MEPQPGGARSCRRGAPGGACELGPAAEAAPMSLAIHSTTGTRYDLAVPPDETVEGLRKRLSQRLKVPKERLALLHKDTRLSSGKLQEFGVGDGSKLTLVPTVEAGLMSQASRPEQSVMQALESLTETQVSDFLSGRSPLTLALRVGDHMMFVQLQLAAQHAPLQHRHVLAAAAAAAAARGDPSIASPVSSPCRPVSSAARVPPVPTSPSPASPSPITAGSFRSHAASTTCPEQMDCSPTASSSASPGASTTSTPGASPAPRSRKPGAVIESFVNHAPGVFSGTFSGTLHPNCQDSSGRPRRDIGTILQILNDLLSATRHYQGMPPSLAQLRCHAQCSPASPAPDLAPRTTSCEKLTAAPSASLLQGQSQIRMCKPPGDRLRQTENRATRCKVERLQLLLQQKALRRKARRDARGPYHWSPSRKAGRSDSSSSGGGGSPSEASGLGLDFEDSVWKPEVNPDIKSEFVVA | – | binds
4 | 3X-Flag tagged full length human MIDN N385A (purified) (natural protein) MEPQPGGARSCRRGAPGGACELGPAAEAAPMSLAIHSTTGTRYDLAVPPDETVEGLRKRLSQRLKVPKERLALLHKDTRLSSGKLQEFGVGDGSKLTLVPTVEAGLMSQASRPEQSVMQALESLTETQVSDFLSGRSPLTLALRVGDHMMFVQLQLAAQHAPLQHRHVLAAAAAAAAARGDPSIASPVSSPCRPVSSAARVPPVPTSPSPASPSPITAGSFRSHAASTTCPEQMDCSPTASSSASPGASTTSTPGASPAPRSRKPGAVIESFVNHAPGVFSGTFSGTLHPNCQDSSGRPRRDIGTILQILNDLLSATRHYQGMPPSLAQLRCHAQCSPASPAPDLAPRTTSCEKLTAAPSASLLQGQSQIRMCKPPGDRLRQTEARATRCKVERLQLLLQQKRLRRKARRDARGPYHWSPSRKAGRSDSSSSGGGGSPSEASGLGLDFEDSVWKPEVNPDIKSEFVVA | – | binds
5 | 3X-Flag tagged full length human MIDN L399K (purified) (natural protein) MEPQPGGARSCRRGAPGGACELGPAAEAAPMSLAIHSTTGTRYDLAVPPDETVEGLRKRLSQRLKVPKERLALLHKDTRLSSGKLQEFGVGDGSKLTLVPTVEAGLMSQASRPEQSVMQALESLTETQVSDFLSGRSPLTLALRVGDHMMFVQLQLAAQHAPLQHRHVLAAAAAAAAARGDPSIASPVSSPCRPVSSAARVPPVPTSPSPASPSPITAGSFRSHAASTTCPEQMDCSPTASSSASPGASTTSTPGASPAPRSRKPGAVIESFVNHAPGVFSGTFSGTLHPNCQDSSGRPRRDIGTILQILNDLLSATRHYQGMPPSLAQLRCHAQCSPASPAPDLAPRTTSCEKLTAAPSASLLQGQSQIRMCKPPGDRLRQTENRATRCKVERLQLLKQQKRLRRKARRDARGPYHWSPSRKAGRSDSSSSGGGGSPSEASGLGLDFEDSVWKPEVNPDIKSEFVVA | – | binds
6 | 3X-Flag tagged full length human MIDN L395K (purified) (natural protein) MEPQPGGARSCRRGAPGGACELGPAAEAAPMSLAIHSTTGTRYDLAVPPDETVEGLRKRLSQRLKVPKERLALLHKDTRLSSGKLQEFGVGDGSKLTLVPTVEAGLMSQASRPEQSVMQALESLTETQVSDFLSGRSPLTLALRVGDHMMFVQLQLAAQHAPLQHRHVLAAAAAAAAARGDPSIASPVSSPCRPVSSAARVPPVPTSPSPASPSPITAGSFRSHAASTTCPEQMDCSPTASSSASPGASTTSTPGASPAPRSRKPGAVIESFVNHAPGVFSGTFSGTLHPNCQDSSGRPRRDIGTILQILNDLLSATRHYQGMPPSLAQLRCHAQCSPASPAPDLAPRTTSCEKLTAAPSASLLQGQSQIRMCKPPGDRLRQTENRATRCKVERKQLLLQQKRLRRKARRDARGPYHWSPSRKAGRSDSSSSGGGGSPSEASGLGLDFEDSVWKPEVNPDIKSEFVVA | – | binds
7 | 3X-Flag tagged full length human MIDN K391A (purified) (natural protein) MEPQPGGARSCRRGAPGGACELGPAAEAAPMSLAIHSTTGTRYDLAVPPDETVEGLRKRLSQRLKVPKERLALLHKDTRLSSGKLQEFGVGDGSKLTLVPTVEAGLMSQASRPEQSVMQALESLTETQVSDFLSGRSPLTLALRVGDHMMFVQLQLAAQHAPLQHRHVLAAAAAAAAARGDPSIASPVSSPCRPVSSAARVPPVPTSPSPASPSPITAGSFRSHAASTTCPEQMDCSPTASSSASPGASTTSTPGASPAPRSRKPGAVIESFVNHAPGVFSGTFSGTLHPNCQDSSGRPRRDIGTILQILNDLLSATRHYQGMPPSLAQLRCHAQCSPASPAPDLAPRTTSCEKLTAAPSASLLQGQSQIRMCKPPGDRLRQTENRATRCAVERLQLLLQQKRLRRKARRDARGPYHWSPSRKAGRSDSSSSGGGGSPSEASGLGLDFEDSVWKPEVNPDIKSEFVVA | – | binds
8 | 3X-Flag tagged full length human MIDN R406A (purified) (natural protein) MEPQPGGARSCRRGAPGGACELGPAAEAAPMSLAIHSTTGTRYDLAVPPDETVEGLRKRLSQRLKVPKERLALLHKDTRLSSGKLQEFGVGDGSKLTLVPTVEAGLMSQASRPEQSVMQALESLTETQVSDFLSGRSPLTLALRVGDHMMFVQLQLAAQHAPLQHRHVLAAAAAAAAARGDPSIASPVSSPCRPVSSAARVPPVPTSPSPASPSPITAGSFRSHAASTTCPEQMDCSPTASSSASPGASTTSTPGASPAPRSRKPGAVIESFVNHAPGVFSGTFSGTLHPNCQDSSGRPRRDIGTILQILNDLLSATRHYQGMPPSLAQLRCHAQCSPASPAPDLAPRTTSCEKLTAAPSASLLQGQSQIRMCKPPGDRLRQTENRATRCKVERLQLLLQQKRLRAKARRDARGPYHWSPSRKAGRSDSSSSGGGGSPSEASGLGLDFEDSVWKPEVNPDIKSEFVVA | – | binds

Reference: doi:10.1101/2025.03.04.641557 (bioRxiv, 2025)
